Measurements published in patent US20250145711A1 (Janssen / Centocor, published 2025).

B1: CD3B1136 (scFv)
scFv, VL-linker-VH (LH): EIVLTQSPATLSLSPGERATLSCSASSSVSYMNWYQQKPGTSPRRLIYDSSKLASGIPARFSGSGSGRDYTLTISSLEPEDFAVYYCQQWSRNPPTFGGGTKVEIKGGSEGKSSGSGSESKSTGGSEVQLVQSGAEVKKPGESLRISCKASGYTFTRSTMHWVRQMPGKGLEWMGYINPSSAYTNYNPSFQGHVTLSADKSISTAYLQWSSLKASDTAMYYCARPQVHYDYNGFPYWGQGTLVTVSS
B2: 79C3B646 (bispecific antibody, human IgG1, lambda, L234A L235A)
heavy: QVQLQQSGPGLVKPSQTLSLTCAISGDSVSSNSATWNWIRQSPSRGLEWLGRTYYRSKWYNDYTVSVKSRITINPDTSKNQFSLQLNSVTPEDTAVYYCTRVDIAFDYWGQGTLVTVSSASTKGPSVFPLAPSSKSTSGGTAALGCLVKDYFPEPVTVSWNSGALTSGVHTFPAVLQSSGLYSLSSVVTVPSSSLGTQTYICNVNHKPSNTKVDKKVEPKSCDKTHTCPPCPAPEAAGGPSVFLFPPKPKDTLMISRTPEVTCVVVSVSHEDPEVKFNWYVDGVEVHNAKTKPREEQYNSTYRVVSVLTVLHQDWLNGKEYKCKVSNKALPAPIEKTISKAKGQPREPQVYTLPPSREEMTKNQVSLSCAVKGFYPSDIAVEWESNGQPENNYKTTPPVLDSDGSFFLVSKLTVDKSRWQQGNVFSCSVMHEALHNRFTQKSLSLSPGK
light: QTVVTQPPSVSEAPRQRVTISCSGSSSNIGNHGVNWYQQLPGKAPKLLIYNDDLLPSGVSDRFSGSTSGTSGSLAISGLQSEDEADYYCAAWDDSLNGVVFGGGTKLTVLGQPKAAPSVTLFPPSSEELQANKATLVCLISDFYPGAVTVAWKADSSPVKAGVETTTPSKQSNNKYAASSYLSLTPEQWKSHRSYSCQVTHEGSTVEKTVAPTECS
chain: EIVLTQSPATLSASPGERVTLSCSASSSVSYMNWYQQKPGQAPRRWIYDSSKLASGVPARFSGSGSGRDYTLTISSLEPEDFAVYYCQQWSRNPPTFGGGTKVEIKGGSEGKSSGSGSESKSTGGSQVQLVQSGAEVKKPGSSVKVSCKASGYTFTRSTMHWVKQAPGQGLEWIGYINPSSAYTNYNQKFQGRVTLTADKSTSTAYMELSSLRSEDTAVYYCASPQVHYDYAGFPYWGQGTLVTVSSEPKSSDKTHTCPPCPAPEAAGGPSVFLFPPKPKDTLMISRTPEVTCVVVSVSHEDPEVKFNWYVDGVEVHNAKTKPREEQYNSTYRVVSVLTVLHQDWLNGKEYKCKVSNKALPAPIEKTISKAKGQPREPQVYTLPPSREEMTKNQVSLWCLVKGFYPSDIAVEWESNGQPENNYKTTPPVLDSDGSFFLYSKLTVDKSRWQQGNVFSCSVMHEALHNHYTQKSLSLSPGK
notes: IgG1; HC1/LC form the CD79b Fab arm; HC2 is the CD3 scFv-Fc arm; Knobs-in-holes; also called CD79bxCD3 bsAb; CD9B330-N31S x CD3B2030-N106A
B3: 79C3B651 (bispecific antibody, human IgG1, kappa, L234A L235A)
heavy: QVQLQESGPGLVKPSQTLSLTCTVSGVSISNYYWSWIRQPPGKGLEWIGRISPSGRTNYNPSLKSRVTMSLDASKNQFSLKLSSVTAADTAVYYCARGEYSGTYSYSFDIWGQGTMVTVSSASTKGPSVFPLAPSSKSTSGGTAALGCLVKDYFPEPVTVSWNSGALTSGVHTFPAVLQSSGLYSLSSVVTVPSSSLGTQTYICNVNHKPSNTKVDKKVEPKSCDKTHTCPPCPAPEAAGGPSVFLFPPKPKDTLMISRTPEVTCVVVSVSHEDPEVKFNWYVDGVEVHNAKTKPREEQYNSTYRVVSVLTVLHQDWLNGKEYKCKVSNKALPAPIEKTISKAKGQPREPQVYTLPPSREEMTKNQVSLSCAVKGFYPSDIAVEWESNGQPENNYKTTPPVLDSDGSFFLVSKLTVDKSRWQQGNVFSCSVMHEALHNRFTQKSLSLSPGK
light: DIQMTQSPSSLSASVGDRVTITCRSSQSLFDSDDGNTYLDWFQQKPGQSPKLLIQTLSYRASGVPSRFSGSGSGTDFTLTISSLQPEDFATYYCMQRMEFPLTFGGGTKVEIKRTVAAPSVFIFPPSDEQLKSGTASVVCLLNNFYPREAKVQWKVDNALQSGNSQESVTEQDSKDSTYSLSSTLTLSKADYEKHKVYACEVTHQGLSSPVTKSFNRGEC
chain: B2 chain
notes: IgG1; HC1/LC form the CD79b Fab arm; HC2 is the CD3 scFv-Fc arm; Knobs-in-holes; also called CD79bxCD3 bsAb; CD9B643 x CD3B2030-N106A
B4: CD3B1127 (scFv)
scFv: QVQLQQSGAELARPGASVKMSCKASGYTFTRSTMHWVKQRPGQGLEWIGYINPSSAYTNYNQKFKDKATLTADKSSSTAYMQLSSLTSEDSAVYYCASPQVHYDYNGFPYWGQGTLVTVSAGGSEGKSSGSGSESKSTGGSQVVLTQSPAIMSAFPGEKVTMTCSASSSVSYMNWYQQKSGTSPKRWIYDSSKLASGVPARFSGSGSGTSYSLTISSMETEDAATYYCQQWSRNPPTFGGGTKLQIT
notes: also called Murine HL; murine Cris-7 scFv (HL)
B5: PSMB1069 (bispecific antibody, human IgG1, kappa, L234A L235A)
heavy: not shown
light: not shown
chain: QVQLVESGGGEVQPGRSLRLSCAASGFSFSGYGMHWVRQAPGKGLEWVAVMSYDGSNRFYVDSVRGRFSISRDNSKNTLYLQMNSLRPEDTAVYYCARDTVWGSHPDAFDIWGQGTVVTVSSGGSEGKSSGSGSESKSTGGSQSVLTQPPSVSVAPGQTARITCGGNNSGSKSVHWYQQKPGQAPVLVVYDDSDRPSGIPERFSGSNSGNTATLTISRVEAGDEADYYCQVWDSSSDHGVFGGGTKLTVLEPKSSDKTHTCPPCPAPEAAGGPSVFLFPPKPKDTLMISRTPEVTCVVVSVSHEDPEVKFNWYVDGVEVHNAKTKPREEQYNSTYRVVSVLTVLHQDWLNGKEYKCKVSNKALPAPIEKTISKAKGQPREPQVYVLPPSREEMTKNQVSLLCLVKGFYPSDIAVEWESNGQPENNYLTWPPVLDSDGSFFLYSKLTVDKSRWQQGNVFSCSVMHEALHNHYTQKSLSLSPG
notes: HC1/LC1 null arm; HC2 is the anti-PSMA scFv-Fc

Assays:
[1] = target: T1, TRCW5 antigen (CD3δε-Fc-Avi) (biotinylated (site not stated)); experiment: ELISA: biotinylated TRCW5 on streptavidin plates at the antigen concentration of the x axis, E. coli scFv supernatant, anti-HA-HRP, luminescence
T1 construct: also called recombinant CD3
T1 sequence (chain, as listed by the source mutant limits assumed): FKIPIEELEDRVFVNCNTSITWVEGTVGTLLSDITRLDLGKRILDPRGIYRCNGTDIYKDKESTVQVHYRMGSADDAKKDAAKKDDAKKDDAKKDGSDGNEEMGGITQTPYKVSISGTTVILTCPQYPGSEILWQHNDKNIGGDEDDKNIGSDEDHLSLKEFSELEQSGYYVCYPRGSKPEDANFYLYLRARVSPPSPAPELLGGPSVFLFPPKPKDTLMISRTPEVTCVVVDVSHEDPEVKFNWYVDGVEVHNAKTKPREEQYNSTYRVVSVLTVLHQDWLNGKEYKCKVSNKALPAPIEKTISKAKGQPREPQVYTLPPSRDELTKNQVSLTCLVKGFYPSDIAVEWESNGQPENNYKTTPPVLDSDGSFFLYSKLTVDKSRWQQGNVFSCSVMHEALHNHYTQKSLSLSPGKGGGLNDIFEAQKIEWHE
Experimental: (§1) Briefly, DNA was transformed into an E. coli expression vector to generate scFv molecules having a C-terminal HA-tag, and cells were plated on 2×YT/Carb/2% Glucose grown overnight at 37 C. Colonies were picked and transferred 50 ul of overnight growth cultures to new plates containing 500 ul of 2×YT/Carb/0.1% Glucose, grown for 6-7 hr, and combined with 50 ul 2×YT medium containing 1×carbenicillin & 12×IPTG. Cultures were incubated with shaking ˜600 RPM 30° C. overnight. Streptavidin coated plates were bound with 50 μL of biotinylated TRCW5 antigen (CD3δε-Fc-Avi, SEQ ID NO: 39) at the concentrations indicated in the ELISA graph for 45 min at room temperature with shaking (FIG. 1, FIG. 3, FIG. 4) followed by washing 3× with 1×TBST. Plates were blocked with 200 ul 3% Milk in 1×TBST for ˜45 mins at room temperature followed by washing 3× with 1×TBST. E. coli cultures were harvested by centrifugation at […] for 10 mins 4° C. and 50 μL of supernatant was transferred into CD3-coated plates followed by incubation at 4 C for 45 min. Plates were washed 3× with 1×TBST. Bound scFv was detected with Chicken Polyclonal Anti-HA-HRP (ab1190) [1:1000] for ˜45 mins RT and luminescence detected with chemi-luminescent substrate.

[2] = target: T2, Human CD79b, endogenous on diffuse large B-cell lymphoma cell lines (human, UniProt P40259 29-229); experiment: flow cytometry on Carnaval cells (endogenous CD79b), 1 h 37 C, anti-human IgG AF647
T2 construct: On HBL-1, OCI-LY10 and Carnaval cells, which also carry CD20; also called Igβ
T2 sequence: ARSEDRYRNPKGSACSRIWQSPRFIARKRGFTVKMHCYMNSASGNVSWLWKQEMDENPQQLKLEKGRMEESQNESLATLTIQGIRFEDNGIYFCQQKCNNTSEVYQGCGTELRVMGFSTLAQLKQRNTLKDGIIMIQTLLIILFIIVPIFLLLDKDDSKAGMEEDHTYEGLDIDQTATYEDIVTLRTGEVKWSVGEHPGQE
Experimental: (§2) All cells were washed with BD stain buffer (BD Biosciences; Cat #554657), centrifuged at 1200 RPM for 3 minutes, with supernatant discarded. […] All cells were washed with BD stain buffer (BD Biosciences; Cat #554657), centrifuged at 1200 RPM for 3 mins, with supernatant discarded. Cells were analyzed using Intellicyt (Sartorius) flow cytometer and mean fluorescent intensity (MFI) was generated using Forcyt software (Sartorius). MFI was graphed and EC50 values generated using GraphPad PRISM v.8. Dose response curves were generated by transforming the x axis values using the formula […]. Data was then graphed using non-linear regression curve fit analysis “log(agonist) vs. response-variable slope (four parameter)”.

[3] = target: T2, Human CD79b, endogenous on diffuse …; experiment: flow cytometry on HBL-1 cells (endogenous CD79b), 1 h 37 C, anti-human IgG AF647
Experimental: as §2

[4] = target: T2, Human CD79b, endogenous on diffuse …; experiment: flow cytometry on HBL-1 cells; bispecific control in the trispecific table
Experimental: as §2

[5] = target: T3, Human CD79b long isoform, recombinant extracellular domain (CD9W8.001) (human, UniProt P40259 29-159); experiment: SPR Biacore 8K, antibody captured by anti-human Fc, CD79b in solution, 25 C, 1:1 Langmuir
T3 construct: extracellular domain; also called hu CD79b long
T3 sequence (looked up): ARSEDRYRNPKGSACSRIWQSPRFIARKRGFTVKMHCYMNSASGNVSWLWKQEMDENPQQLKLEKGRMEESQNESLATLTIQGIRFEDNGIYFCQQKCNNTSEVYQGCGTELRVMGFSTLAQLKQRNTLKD
Experimental: (§3) General Protocol for SPR Affinity Assessment: Affinity assessment of the bispecific and trispecific constructs against human CD79b were measured using recombinantly expressed extracellular domain of CD79b short and long isoforms (CD9W7.001 and CD9W8.001, respectively) by Surface Plasmon Resonance (SPR) using a Biacore 8 k SPR system (Biacore) at 25° C. in HBSP+ buffer. Cross-reactivity of the same antibody panel was also assessed against cyno and mouse antigens (CD9W1.001 and CD9W105.001, respectively). Briefly, a C1 sensor chip was immobilized with anti-human Fc (target immobilization levels of >400 RU) using vendor recommended amino coupling protocol. The test antibodies were captured through immobilized anti-Fc and was followed by the injection of different CD79b constructs at different concentration series (human CD79b short and long isoforms: 30 nM-0.37 nM at 3-fold dilutions; cyno and mouse CD79b: 3000 nM-37 nM at 3-fold dilutions). The association and dissociation phases were measured for 2 or 3 minutes and 30 minutes, respectively.
(§4) The raw binding sensorgrams were processed using Biacore Insight software (Biacore) by double-referencing and the processed sensorgrams were analyzed for cross-reactivity and fitted to a 1:1 Langmuir model to obtain on-rates, off-rates and affinities.

[6] = target: T4, Human CD79b short isoform, recombinant extracellular domain (CD9W7.001) (human, UniProt P40259 29-159); experiment: as above
T4 chain: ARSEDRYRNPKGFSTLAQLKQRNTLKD
Experimental: as §3, §4

[7] = target: T2, Human CD79b, endogenous on diffuse …; experiment: flow cytometry on Carnaval cells; bispecific control in the trispecific table
Experimental: as §2

[8] = target: T1, TRCW5 antigen (CD3δε-Fc-Avi); experiment: ELISA, E. coli scFv on biotinylated TRCW5
Experimental: as §1

[9] = target: T1, TRCW5 antigen (CD3δε-Fc-Avi); experiment: ELISA after heat
[10] = target: T1, TRCW5 antigen (CD3δε-Fc-Avi); experiment: ELISA: biotinylated TRCW5 on streptavidin plates at the [CD3] of the x axis, E. coli scFv supernatant, anti-HA-HRP, luminescence
Experimental: as §1

[11] = target: PSMA on C4-2B human prostate tumor cells (human, UniProt Q04609 1-750); experiment: flow cytometry, C4-2B cells
PSMA on C4-2B human prostate tumor cells, sequence (Q04609 whole entry): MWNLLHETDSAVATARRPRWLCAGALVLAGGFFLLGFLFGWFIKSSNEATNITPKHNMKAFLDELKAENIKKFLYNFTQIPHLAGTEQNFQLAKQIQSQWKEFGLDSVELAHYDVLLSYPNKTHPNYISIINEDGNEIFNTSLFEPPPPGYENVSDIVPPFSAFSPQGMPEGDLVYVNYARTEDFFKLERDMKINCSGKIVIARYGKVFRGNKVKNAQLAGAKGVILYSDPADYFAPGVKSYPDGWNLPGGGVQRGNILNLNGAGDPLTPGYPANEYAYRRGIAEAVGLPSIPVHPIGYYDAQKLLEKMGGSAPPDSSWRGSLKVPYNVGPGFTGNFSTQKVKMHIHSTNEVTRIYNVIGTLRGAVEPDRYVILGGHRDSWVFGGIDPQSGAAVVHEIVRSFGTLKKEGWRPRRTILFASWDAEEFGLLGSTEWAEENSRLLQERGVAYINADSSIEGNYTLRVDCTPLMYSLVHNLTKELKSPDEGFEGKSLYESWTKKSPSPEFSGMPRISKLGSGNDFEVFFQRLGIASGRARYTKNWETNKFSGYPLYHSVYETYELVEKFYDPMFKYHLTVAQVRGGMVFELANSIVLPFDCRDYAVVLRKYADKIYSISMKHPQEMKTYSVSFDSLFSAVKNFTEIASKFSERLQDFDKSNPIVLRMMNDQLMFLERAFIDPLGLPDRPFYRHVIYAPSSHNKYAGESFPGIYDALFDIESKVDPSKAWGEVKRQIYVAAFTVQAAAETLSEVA
Experimental: Molecule concentrations ranged from 500-0 nM over 12-points at 3-fold dilution. […] Values reported in the Table 69 were generated by fitting the data to a four-parameter function for ligand binding generating values for y-min, y-max, EC50, and Hill. EC90 were calculated using the equation EC90=[…]\hat{ }(1/Hill)*EC50.

Binder | EC50 [2] | EC50 [3] | EC50 [4] | Kd [5] | Kd [6] | EC50 [7] | other results
B1 |  |  |  |  |  |  | binding result [1]: no binding (tested: 10 ug/ml (antigen))
B2 | 44 nM | 97 nM | 97 nM | 0.022 nM | 0.58 nM | 44 nM | 
B3 | 12 nM | 15 nM | 15 nM | 0.052 nM | 0.35 nM | 12 nM | 
B4 |  |  |  |  |  |  | EC50 [8]: ~0.397 nM; % Retained 55° C. [9]: 19%; % Retained 60° C. [9]: 0%; % Retained 65° C. [9]: 1%; EC50 (read off the curve) [10]: ~0.4 nM
B5 |  |  |  |  |  |  | fold binding signal (Y-max) over the average [11]: 2 fold
